Data from patent US20260015420A1 (CENTESSA PHARMACEUTICALS UK, published 2026).

What was measured:
[1] = target: Insulin; assay: ELISA on coated insulin, OD450
[2] = target: T1, human CD47-Fc (human, UniProt Q08722 19-139); assay: HTRF competition with labelled h5F9G4 IgG1 (m11) for human CD47-Fc, normalised 665/615 ratio
T1 construct: also called hCD47; human CD47-Fc protein; not shown: Fc part

[3] = target: T2, human CD47 on cells (human CD47-transfected CHO-K1 cells; HL60; Jurkat) (human, UniProt Q08722 19-323); assay: flow cytometry, human CD47-transfected CHO-K1 cells, 100-0.024 µg/ml
T2 construct: CHO-K1 cells stably transfected with human CD47 full-length cDNA; also endogenous CD47 of the human AML line HL60 and of Jurkat cells; also called human CD47+ cells; human CD47+CHO-K1

[4] = target: T1, human CD47-Fc; assay: HTRF competition with labelled h5F9G4 IgG1 (m11) for human CD47-Fc, 665/615 ratio
[5] = target: T3, cynomolgus monkey CD47-Fc (cynomolgus monkey, UniProt Q08722 19-139 (human entry), limits assumed); assay: direct ELISA, coated cyno CD47-Fc, OD450 [D00009 FIG. 6D; D00010 FIG. 6F; D00011 FIG. 6H]
T3 construct: also called cCD47; cyno CD47-Fc; not shown: Fc part
T3 chain: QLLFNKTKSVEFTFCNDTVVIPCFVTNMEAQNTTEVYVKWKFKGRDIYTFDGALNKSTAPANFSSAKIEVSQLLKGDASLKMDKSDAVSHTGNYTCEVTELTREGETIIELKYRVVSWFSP

[6] = target: T1, human CD47-Fc; assay: HTRF epitope competition; competitor Tb-labelled h5F9G4 IgG1 on biotinylated human CD47-Fc
[7] = target: T3, cynomolgus monkey CD47-Fc; assay: competition ELISA: cyno CD47-Fc binding to plate-bound human SIRPa-Fc, % binding
[8] = target: T3, cynomolgus monkey CD47-Fc; assay: HTRF competition with labelled h5F9G4 IgG1 (m11) for cyno CD47-Fc, normalised 665/615 ratio
[9] = target: T3, cynomolgus monkey CD47-Fc; assay: HTRF epitope competition; competitor Tb-labelled h5F9G4 IgG1 on biotinylated cyno CD47-Fc
[10] = target: T1, human CD47-Fc; assay: competition ELISA: human CD47-Fc binding to plate-bound human SIRPa-Fc, OD450
[11] = target: T3, cynomolgus monkey CD47-Fc; assay: competition ELISA: cyno CD47-Fc binding to plate-bound human SIRPa-Fc, OD450
[12] = target: T1, human CD47-Fc; assay: competition ELISA: human CD47-Fc binding to plate-bound human SIRPa-Fc, % binding
[13] = target: T4, cynomolgus monkey CD47 on cyno CD47-transfected CHO-K1 cells (cynomolgus monkey, UniProt Q08722 19-323 (human entry)); assay: flow cytometry, cyno CD47-transfected CHO-K1 cells, 100-0.024 µg/ml
T4 construct: CHO-K1 cells stably transfected with cyno CD47 full-length cDNA; also called cyno CD47+ cells; cyno CD47+CHO-K1
T4 chain: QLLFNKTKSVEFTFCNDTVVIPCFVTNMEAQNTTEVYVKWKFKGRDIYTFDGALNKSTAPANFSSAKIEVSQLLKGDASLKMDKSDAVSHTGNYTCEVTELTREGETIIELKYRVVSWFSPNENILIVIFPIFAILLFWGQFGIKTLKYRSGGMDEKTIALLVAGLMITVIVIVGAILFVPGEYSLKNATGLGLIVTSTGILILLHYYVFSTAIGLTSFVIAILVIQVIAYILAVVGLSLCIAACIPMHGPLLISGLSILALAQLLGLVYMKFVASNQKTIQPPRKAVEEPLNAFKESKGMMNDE

[14] = target: T1, human CD47-Fc; assay: direct ELISA, coated human CD47-Fc, OD450
[15] = target: T1, human CD47-Fc; assay: HTRF competition with labelled h5F9G4 IgG1 (m11) for human CD47-Fc, 665/615 ratio; remark: listed apart in the source
[16] = target: T1, human CD47-Fc; assay: direct ELISA, coated human CD47-Fc, OD450 [D00009 FIG. 6C; D00010 FIG. 6E; D00011 FIG. 6G]

Sequence of Insulin (P01308 25-54, chain 1 of 2): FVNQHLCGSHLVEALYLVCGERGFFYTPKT
Sequence of Insulin (P01308 90-110, chain 2 of 2): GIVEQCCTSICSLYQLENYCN

## Bococizumab human IgG1 analogue (antibody)
[1]
  EC50 (read off the curve): 0.02 µg/mL

B1: chimeric anti-CD47 m5F9G4, human IgG1null (antibody, V domains shown)
VH: QVQLQQPGAELVKPGASVMMSCKASGYTFTNYNMHWVKQTPGQGLEWIGTIYPGNDDTSYNQKFKDKATLTADKSSSAAYMQLSSLTSEDSAVYYCARGGYRAMDYWGQGTSVTVSS
VL: DVLMTQTPLSLPVSLGDQASISCRSSQSIVYSNGNTYLGWYLQKPGQSPKLLIYKVSNRFSGVPDRFSGSGSGTDFTLKISRVEAEDLGVYHCFQGSHVPYTFGGGTKVEIK
notes: Murine v-domains on human IgG1null (IgG1 with L234A/L235A/G237A), kappa; also called m5F9G4 IgG1; m59G4
[2]
  IC50 (read off the curve): ~0.3 µg/mL
[3]
  maximum MFI over background on untransfected CHO-K1 (fold): > 50 fold
[4]
  IC50 (read off the curve): ~0.05 µg/mL
[5]
  EC50 (read off the curve): ~0.06 µg/mL
[6]
  IC50: 0.601 µg/mL
[7]
  IC50 (read off the curve): ~0.2 µg/mL
[8]
  IC50 (read off the curve): ~0.1 µg/mL
[9]
  IC50: 0.809 µg/mL
[10]
  IC50 (read off the curve): ~1 nM
[11]
  IC50 (read off the curve): ~3 nM
[12]
  IC50 (read off the curve): ~0.3 µg/mL
[13]
  maximum MFI over background on untransfected CHO-K1 (fold): > 50 fold
[14]
  EC50 (read off the curve): ~0.04 µg/mL
[15]
  IC50 (read off the curve): ~0.05 µg/mL
[16]
  EC50 (read off the curve): ~0.07 µg/mL

B2: IGHV5-51 graft IgG (IGKV2-28/IGHV5-51 graft), human IgG1null (antibody, V domains shown)
VH: EVQLVQSGAEVKKPGESLKISCKGSGYSFTNYNMHWVRQMPGKGLEWMGTIYPGNDDTSYNQKFQGQVTISADKSISTAYLQWSSLKASDTAMYYCARGGYRAMDYWGQGTLVTVSS
VL: DIVMTQSPLSLPVTPGEPASISCRSSQSIVYSNGNTYLGWYLQKPGQSPQLLIYKVSNRFSGVPDRFSGSGSGTDFTLKISRVEAEDVGVYYCFQGSHVPYTFGQGTKLEIK
notes: IgG1null; also called IGHV5-51 grafted IgG; IGHV5-51-grafted IgG
[4]
  IC50 (read off the curve): ~0.3 µg/mL
[10]
  IC50 (read off the curve): ~4 nM
[11]
  IC50 (read off the curve): ~5 nM
